Test results as given in PMC8894450, “Structural basis of leukotriene B4 receptor 1 activation” (Nature Communications, 2022).

Target: T1, human dominant-negative Gαi1 (S47N, G203A, A326S and E245A) (human, UniProt P63096 1-354, S47N | G203A | A326S | E245A)
T1 construct: The alpha-helical domain had no clear density in the map; also called Gα subunit; Gαi subunit; source: Sf9 cells co-infected with baculoviruses encoding each component; co-purified with the BLT1/Gi complex
Experiment: cryo-EM structure; single-particle cryo-EM of the LTB4-bound BLT1/Gi complex (with scFv16, NanoBiT tether); components co-expressed in Sf9, complex purified on amylose, TEV cut, gel filtration in 25 mM Hepes pH 7.5, 150 mM NaCl, LMNG/GDN/CHS; LTB4 300 nM throughout
Conditions: both partners purified

T1 sequence (P63096 whole entry S47N/G203A/E245A/A326S, the tested form may be a part): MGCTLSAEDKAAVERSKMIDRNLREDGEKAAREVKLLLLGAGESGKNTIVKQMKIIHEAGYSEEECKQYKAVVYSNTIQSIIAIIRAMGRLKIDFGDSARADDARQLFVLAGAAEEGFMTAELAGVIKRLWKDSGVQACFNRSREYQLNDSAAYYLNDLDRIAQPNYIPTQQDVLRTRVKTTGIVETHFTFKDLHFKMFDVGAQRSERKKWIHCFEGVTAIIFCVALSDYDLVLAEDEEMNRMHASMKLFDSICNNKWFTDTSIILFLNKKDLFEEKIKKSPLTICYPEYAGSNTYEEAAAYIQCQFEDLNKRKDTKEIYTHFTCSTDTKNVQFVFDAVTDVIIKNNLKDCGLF

B1: engineered human leukotriene B4 receptor 1 (BLT1) with 4 thermostabilizing mutations and a C-terminal LgBiT fusion (receptor)
chain: MNTTSSAAPPSLGVEFISLLAIILLSVALAVGLPGNSFVVWSILKRMQKRSVTALMVLNLALADLAVLLTAPFFLHFLAQGTWSFGLAGCRLCHYVCGVSMYASVWLITAMSLDRSLAVARPFVSQKLRTKAMARRVLAGIWVLSFLLATPVLAYRTVVPWKTNMSLCFPRYPSEGHRAFHLIFEAVTGFLLPFLIVVASYSDIGRRLQARRFRRSRRTGRLVVLIILTFAAFWLPYHVVNLAEAGRALAGQAAGLGLVGKRLSLARNVLIALAFLSSSVNPVLYAFAGGGLLRSAGVGFVAKLLEGTGAEASSTRRGGSLGQTARSGPAALEPGPSESLTASSPLKLNELN
notes: human leukotriene B4 receptor 1 (BLT1), codon-optimized gene; model lacks the first 14 residues and the C-tail after residue 301; A TEV site stands between LgBiT and 2x MBP; LgBiT on the receptor pairs with HiBiT on Gbeta1 (NanoBiT tethering strategy); also called BLT1R; the receptor; source: Sf9 cells co-infected with baculoviruses encoding each component; complex purified (amylose column, TEV …)
Does B1 bind?
Result: binds
